Measurements from patent US20240010749A1.

How the values were obtained:
[1] = molecular target: human CEACAM5 expressed on cancer cell lines (MKN-45, NCI-H441, SNU-16, SK-CO-1, LS174T) (human) (UniProt P06731); assay: flow cytometry, MKN-45 cells, 10 µg/mL antibody
[2] = molecular target: human CEACAM5 expressed on cancer cell lines (MKN-45, NCI-H441, SNU-16, SK-CO-1, LS174T) (human) (UniProt P06731); assay: flow cytometry, NCI-H441 cells, 10 µg/mL antibody

Sequence of human CEACAM5 expressed on cancer cell lines (MKN-45, NCI-H441, SNU-16, SK-CO-1, LS174T) (human) (P06731 35-685): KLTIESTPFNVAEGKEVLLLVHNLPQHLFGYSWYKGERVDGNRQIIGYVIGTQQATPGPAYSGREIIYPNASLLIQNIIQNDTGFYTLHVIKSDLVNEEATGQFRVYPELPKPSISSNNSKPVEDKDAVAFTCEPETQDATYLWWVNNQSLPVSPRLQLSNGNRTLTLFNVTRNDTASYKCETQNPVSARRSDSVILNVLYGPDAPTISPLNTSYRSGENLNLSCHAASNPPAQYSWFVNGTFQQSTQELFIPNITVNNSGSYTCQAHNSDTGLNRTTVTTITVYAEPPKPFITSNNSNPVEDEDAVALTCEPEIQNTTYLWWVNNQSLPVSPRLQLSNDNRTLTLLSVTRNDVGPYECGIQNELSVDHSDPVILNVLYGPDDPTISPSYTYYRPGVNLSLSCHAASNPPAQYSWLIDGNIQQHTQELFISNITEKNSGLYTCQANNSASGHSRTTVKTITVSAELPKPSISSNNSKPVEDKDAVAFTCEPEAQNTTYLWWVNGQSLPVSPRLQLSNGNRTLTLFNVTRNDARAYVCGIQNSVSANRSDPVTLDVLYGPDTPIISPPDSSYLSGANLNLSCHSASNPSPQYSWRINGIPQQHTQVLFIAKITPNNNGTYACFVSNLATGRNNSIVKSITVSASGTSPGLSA

quotient of MFI of antibody divided by MFI of secondary antibody only control [1]: 3.8
quotient of MFI of antibody divided by MFI of secondary antibody only control [2]: 1.1
Substance: mouse monoclonal anti-CEACAM5 antibody Agilent Dako #M7072 clone II7
